Values of other authors as cited in article PMC8476072.

Target: CheZ (Escherichia coli) (UniProt P0A9H9)
Chain of UniProt P0A9H9 (P0A9H9 whole entry): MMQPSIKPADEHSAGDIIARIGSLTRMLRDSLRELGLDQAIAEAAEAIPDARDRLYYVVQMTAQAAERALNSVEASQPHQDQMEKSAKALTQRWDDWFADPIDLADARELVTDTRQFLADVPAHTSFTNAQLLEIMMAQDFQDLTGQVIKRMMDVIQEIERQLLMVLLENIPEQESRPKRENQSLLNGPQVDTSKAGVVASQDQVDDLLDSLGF

In the case of CheY (from UniProt P0AE67), the Kd is given as 8 µM.
